Changes are numbered by the printed parent chain. “And” between values parts separate entries of the source, which are not always exact repeats. Identical values can stand only once.
B1: 407_10_1_v2 (antibody, V domains shown)
VH: QVQLVQSGAEVKKPGSSVKVSCKASGGIFNTYTISWVRQAPGQGLEWMGRIILMSGMANYAQKIQGRVTITADKSTSTAYMELTSLRSDDTAVYYCARGFNGNYYGWGDDDAFDIWGQGTLVTVYS
VL: QTVLTQPPSVSGAPGQRVTISCTGSNSNIGAGYDVHWYQQLPGTAPKLLICGNSNRPSGVPDRFSGSKSGTSASLAITGLQAEDEADYYCQSYDSSLSGPNWVFGGGTKLTVL
B2: S2X259 variant antibody, VH SEQ ID NO 459 / VL SEQ ID NO 445 (antibody, V domains shown)
VH: B1 VH with M57K, Y125S
VL: B1 VL with C51V
B3: S2X259 variant antibody, VH SEQ ID NO 458 / VL SEQ ID NO 445 (antibody, V domains shown)
VH: B1 VH with Y125S
VL: B1 VL with C51V
B4: S2X259 variant antibody, VH SEQ ID NO 460 / VL SEQ ID NO 445 (antibody, V domains shown)
VH: B1 VH with M54I, M57I, Y125S
VL: B1 VL with C51V
B5: S2X259 variant antibody, VH SEQ ID NO 408 / VL SEQ ID NO 445 (antibody, V domains shown)
VH: B1 VH with W116S
VL: B1 VL with C51V
B6: S2X259 variant antibody, VH SEQ ID NO 408 / VL SEQ ID NO 442 (antibody, V domains shown)
VH: B1 VH with W116S
VL: B1 VL with C51S
B7: S2X259 variant antibody, VH SEQ ID NO 408 / VL SEQ ID NO 444 (antibody, V domains shown)
VH: B1 VH with W116S
VL: B1 VL with C51Y
B8: S2X259 variant antibody, VH SEQ ID NO 446 / VL SEQ ID NO 412 (antibody, V domains shown)
VH: B1 VH with M54I, M57I, W116S
VL: B1 VL
B9: S2X259 variant antibody, VH SEQ ID NO 448 / VL SEQ ID NO 412 (antibody, V domains shown)
VH: B1 VH with N30S, W116S
VL: B1 VL
B10: S2X259 variant antibody, VH SEQ ID NO 408 / VL SEQ ID NO 443 (antibody, V domains shown)
VH: B1 VH with W116S
VL: B1 VL with C51A

What follows are binders tested against T1, SARS-CoV-2 RBD (residues 331-550 of spike from BetaCoV/Wuhan-Hu-1/2019, accession number MN908947) (SARS-CoV-2 Wuhan-Hu-1, UniProt P0DTC2 331-550) (assay: not given).
B1 was tested, and the “EC50 (read off the curve)” value was about 5 µg/mL.

What follows are binders tested against SARS-CoV-2 mutant RBD N439K (SARS-CoV-2, UniProt P0DTC2 328-531) (assay: ELISA).
In the case of B2, the IC50 is reported as ≥ 0.05 µg/mL and ≤ 0.1 µg/mL.
B3 was tested, and the IC50 was ≥ 0.05 µg/mL and ≤ 0.1 µg/mL.

The binders below were run against T1, SARS-CoV-2 RBD (residues 331-550 of …) (assay: ELISA).
With B2 the IC50 was ≥ 0.05 µg/mL and ≤ 0.1 µg/mL.
B4 was tested, and the IC50 was ≥ 0.05 µg/mL and ≤ 0.1 µg/mL.
With B3 the IC50 was ≥ 0.05 µg/mL and ≤ 0.1 µg/mL.

The binders below were run against T1, SARS-CoV-2 RBD (residues 331-550 of …) (assay: BLI).
With B2 the Kd was 0.108 nM, the koff was 6.46e-05 s⁻¹ and the kon was 601000 M⁻¹ s⁻¹.
B4 gave a Kd of 0.298 nM, a koff of 0.000177 s⁻¹ and a kon of 595000 M⁻¹ s⁻¹.
Binder B3 has a Kd of 0.0836 nM, a koff of 5.03e-05 s⁻¹ and a kon of 601000 M⁻¹ s⁻¹.
With B5 the Kd was 0.0314 nM, the koff was 2.08e-05 s⁻¹ and the kon was 661000 M⁻¹ s⁻¹.

Biological target: T1, SARS-CoV-2 RBD (residues 331-550 of …)
Experiment: BLI
Remark: another data set of the same source
For B5, the Kd was 0.0764 nM.
With B6 the Kd was 0.0605 nM.
Binder B7 has a Kd of 0.0642 nM.
B8 showed a Kd of 0.572 nM.
B9 showed a Kd of 0.584 nM.
B10 was tested, and the Kd was 0.0828 nM.

The binders below were run against T2, SARS-CoV-2 Spike protein (SARS-CoV-2 Wuhan-Hu-1, UniProt P0DTC2 14-1273) (assay: cell-based or functional assay).
In the case of B5, the “neutralization IC50” value is reported as 0.19 µg/mL.
In the case of B6, the “neutralization IC50” value is reported as 0.19 µg/mL.
For B7, the “neutralization IC50” value was 0.167 µg/mL.
B8 was tested, and the “neutralization IC50” value was 0.321 µg/mL.
B9 was tested, and the “neutralization IC50” value was 0.0134 µg/mL.
B10 was tested, and the “neutralization IC50” value was 0.0975 µg/mL.

Biological target: T2, SARS-CoV-2 Spike protein
Experiment: cell-based or functional assay
Remark: another data set of the same source
With B5 the “neutralization IC50” value was under 0.1 µg/mL.
B10 was tested, and the “neutralization IC50” value was under 0.1 µg/mL.
